Measured values as given in article PMC9844859, “Appia: Simpler chromatography analysis and visualization” (PLOS ONE, 2023).

Biological target: T1, Human NEDD4-2-GFP (human, UniProt Q96PU5 1-975)
T1 construct: NEDD4-2 (E3 ubiquitin ligase NEDD4-like), human; also called NEDD4-2-GFP fusion protein; source: Sf9 cells (MOI of 5, 48 hours), purified (TALON resin, SEC)
T1 sequence (looked up): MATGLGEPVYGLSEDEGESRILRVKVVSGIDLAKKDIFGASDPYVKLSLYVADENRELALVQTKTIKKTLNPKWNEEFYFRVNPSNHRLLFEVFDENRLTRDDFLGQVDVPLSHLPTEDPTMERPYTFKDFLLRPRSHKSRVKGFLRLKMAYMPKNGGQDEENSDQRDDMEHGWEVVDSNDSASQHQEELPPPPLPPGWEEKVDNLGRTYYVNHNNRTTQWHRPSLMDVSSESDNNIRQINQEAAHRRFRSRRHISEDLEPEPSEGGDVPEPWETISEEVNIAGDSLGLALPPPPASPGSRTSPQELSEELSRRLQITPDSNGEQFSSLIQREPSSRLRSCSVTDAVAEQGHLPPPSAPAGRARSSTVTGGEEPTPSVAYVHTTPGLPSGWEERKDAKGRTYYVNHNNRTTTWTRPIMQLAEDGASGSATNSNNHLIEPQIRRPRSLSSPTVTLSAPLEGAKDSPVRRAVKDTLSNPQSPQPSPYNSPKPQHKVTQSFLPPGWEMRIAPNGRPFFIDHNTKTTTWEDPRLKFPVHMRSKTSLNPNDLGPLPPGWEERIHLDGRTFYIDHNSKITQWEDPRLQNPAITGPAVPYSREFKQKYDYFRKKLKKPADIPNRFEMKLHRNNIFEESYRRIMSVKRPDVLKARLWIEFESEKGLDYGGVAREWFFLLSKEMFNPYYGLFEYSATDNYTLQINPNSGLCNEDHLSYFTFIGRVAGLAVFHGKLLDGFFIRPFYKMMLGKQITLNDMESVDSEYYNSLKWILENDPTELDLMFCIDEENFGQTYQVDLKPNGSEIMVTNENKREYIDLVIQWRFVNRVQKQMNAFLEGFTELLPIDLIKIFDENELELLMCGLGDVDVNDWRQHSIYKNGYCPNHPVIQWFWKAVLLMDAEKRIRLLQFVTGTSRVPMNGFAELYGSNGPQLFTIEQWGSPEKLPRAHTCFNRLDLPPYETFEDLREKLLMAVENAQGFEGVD
Experiment: SEC; fluorescence-detection SEC (FSEC), GFP channel; NEDD4-2-GFP held at 71.2 nM, ENaC αβγ added in equal amounts, five-fold or ten-fold excess; Superose 6 Increase 10/300; TBS (20 mM Tris pH 7.5, 200 mM NaCl) + 0.5 mM DDM
Settings: both partners purified

B1: triheteromeric αβγ Epithelial Sodium Channel (ENaC αβγ) (complex)
chain 1: MEGNKLEEQDSSPPQSTPGLMKGNKREEQGLGPEPAAPQQPTAEEEALIEFHRSYRELFEFFCNNTTIHGAIRLVCSQHNRMKTAFWAVLWLCTFGMMYWQFGLLFGEYFSYPVSLNINLNSDKLVFPAVTICTLNPYRYPEIKEELEELDRITEQTLFDLYKYSSFTTLVAGSRSRRDLRGTLPHPLQRLRVPPPPHGARRARSVASSLRDNNPQVDWKDWKIGFQLCNQNKSDCFYQTYSSGVDAVREWYRFHYINILSRLPETLPSLEEDTLGNFIFACRFNQVSCNQANYSHFHHPMYGNCYTFNDKNNSNLWMSSMPGINNGLSLMLRAEQNDFIPLLSTVTGARVMVHGQDEPAFMDDGGFNLRPGVETSISMRKETLDRLGGDYGDCTKNGSDVPVENLYPSKYTQQVCIHSCFQESMIKECGCAYIFYPRPQNVEYCDYRKHSSWGYCYYKLQVDFSSDHLGCFTKCRKPCSVTSYQLSAGYSRWPSVTSQEWVFQMLSRQNNYTVNNKRNGVAKVNIFFKELNYKTNSESPSVTMVTLLSNLGSQWSLWFGSSVLSVVEMAELVFDLLVIMFLMLLRRFRSRYWSPGRGGRGAQEVASTLASSPPSHFCPHPMSLSLSQPGPAPSPALTAPPPAYATLGPRPSPGGSAGASSSTCPLGGP
chain 2: MHVKKYLLKGLHRLQKGPGYTYKELLVWYCDNTNTHGPKRIICEGPKKKAMWFLLTLLFAALVCWQWGIFIRTYLSWEVSVSLSVGFKTMDFPAVTICNASPFKYSKIKHLLKDLDELMEAVLERILAPELSHANATRNLNFSIWNHTPLVLIDERNPHHPMVLDLFGDNHNGLTSSSASEKICNAHGCKMAMRLCSLNRTQCTFRNFTSATQALTEWYILQATNIFAQVPQQELVEMSYPGEQMILACLFGAEPCNYRNFTSIFYPHYGNCYIFNWGMTEKALPSANPGTEFGLKLILDIGQEDYVPFLASTAGVRLMLHEQRSYPFIRDEGIYAMSGTETSIGVLVDKLQRMGEPYSPCTVNGSEVPVQNFYSDYNTTYSIQACLRSCFQDHMIRNCNCGHYLYPLPRGEKYCNNRDFPDWAHCYSDLQMSVAQRETCIGMCKESCNDTQYKMTISMADWPSEASEDWIFHVLSQERDQSTNITLSRKGIVKLNIYFQEFNYRTIEESAANNIVWLLSNLGGQFGFWMGGSVLCLIEFGEIIIDFVWITIIKLVALAKSLRQRRAQASYAGPPPTVAELVEAHTNFGFQPDTAPRSPNTGPYPSEQALPIPGTPPPNYDSLRLQPLDVIESDSEGDAI
chain 3: MAPGEKIKAKIKKNLPVTGPQAPTIKELMRWYCLNTNTHGCRRIVVSRGRLRRLLWIGFTLTAVALILWQCALLVFSFYTVSVSIKVHFRKLDFPAVTICNINPYKYSTVRHLLADLEQETREALKSLYGFPESRKRREAESWNSVSEGKQPRFSHRIPLLIFDQDEKGKARDFFTGRKRKVGGSIIHKASNVMHIESKQVVGFQLCSNDTSDCATYTFSSGINAIQEWYKLHYMNIMAQVPLEKKINMSYSAEELLVTCFFDGVSCDARNFTLFHHPMHGNCYTFNNRENETILSTSMGGSEYGLQVILYINEEEYNPFLVSSTGAKVIIHRQDEYPFVEDVGTEIETAMVTSIGMHLTESFKLSEPYSQCTEDGSDVPIRNIYNAAYSLQICLHSCFQTKMVEKCGCAQYSQPLPPAANYCNYQQHPNWMYCYYQLHRAFVQEELGCQSVCKEACSFKEWTLTTSLAQWPSVVSEKWLLPVLTWDQGRQVNKKLNKTDLAKLLIFYKDLNQRSIMESPANSIEMLLSNFGGQLGLWMSCSVVCVIEIIEVFFIDFFSIIARRQWQKAKEWWAWKQAPPCPEAPRSPQGQDNPALDIDDDLPTFNSALHLPPALGTQVPGTPPPKYNTLRLERAFSNQLTDTQMLDEL
notes: ENaC alpha subunit; ENaC beta subunit; ENaC gamma subunit; The trypsin treatment may also cut the subunits themselves; also called αβγ ENaC; source: HEK293S GnTI- cells, baculovirus, purified (GFP nanobody resin, eluted with trypsin, SEC) as described for ENaC δβγ; copies: + +
- percent of total NEDD4-2 bound at a 1:5 NEDD4-2:ENaC αβγ ratio: ~20%
